Key:
[1] = biological target: T1, HLA-A*02:01 on T2 cells without added peptide (human); assay: flow cytometry; T2 cells without peptide, stained with Foxp3-#32 bispecific mAb
T1 construct: Also serves as the HLA partner in the T2 stabilization assay of the TLI analog peptides; also called T2 cells alone; HLA-A*02 molecule
Text: (§1) TLI peptide was substituted with alanine at position 1, 2, 3, 4, 5, 7, 8 and 9, or with glycine at position 10. Position 6 was already alanine and it was left intact.

[2] = biological target: T2, A5: … on HLA-A2 of T2 cells (human, UniProt A*02:01); assay: flow cytometry; T2 cells pulsed with the peptide at 50 ug/ml, stained with Foxp3-#32 bispecific mAb
T2 construct: on T2 cells; W5A; also called A5 analog of the Foxp3-TLI peptide/HLA-A*02:01
Text: as §1

[3] = biological target: T3, A7: … on HLA-A2 of T2 cells (human, UniProt A*02:01); assay: as above
T3 construct: on T2 cells; I7A; also called A7 analog of the Foxp3-TLI peptide/HLA-A*02:01
Text: as §1

[4] = biological target: T4, A8: … on HLA-A2 of T2 cells (human, UniProt A*02:01); assay: as above
T4 construct: on T2 cells; L8A; also called A8 analog of the Foxp3-TLI peptide/HLA-A*02:01
Text: as §1

[5] = biological target: T5, A9: … on HLA-A2 of T2 cells (human, UniProt A*02:01); assay: as above
T5 construct: on T2 cells; E9A; also called A9 analog of the Foxp3-TLI peptide/HLA-A*02:01
Text: as §1

[6] = biological target: T6, G10: … on HLA-A2 of T2 cells (human, UniProt A*02:01); assay: as above
T6 construct: on T2 cells; A10G; also called G10 analog of the Foxp3-TLI peptide/HLA-A*02:01
Text: as §1

[7] = biological target: T7, A1: … on HLA-A2 of T2 cells (human, UniProt A*02:01); assay: as above
T7 construct: on T2 cells; T1A; also called A1 analog of the Foxp3-TLI peptide/HLA-A*02:01
Text: as §1

[8] = biological target: T8, A2: … on HLA-A2 of T2 cells (human, UniProt A*02:01); assay: as above
T8 construct: on T2 cells; L2A; also called A2 analog of the Foxp3-TLI peptide/HLA-A*02:01
Text: as §1

[9] = biological target: T9, A3: … on HLA-A2 of T2 cells (human, UniProt A*02:01); assay: as above
T9 construct: on T2 cells; I3A; also called A3 analog of the Foxp3-TLI peptide/HLA-A*02:01
Text: as §1

[10] = biological target: T10, A4: … on HLA-A2 of T2 cells (human, UniProt A*02:01); assay: as above
T10 construct: on T2 cells; R4A; also called A4 analog of the Foxp3-TLI peptide/HLA-A*02:01
Text: as §1

[11] = biological target: T11, CD3 on the Jurkat T cell line (human, UniProt P07766 23-207); assay: flow cytometry on Jurkat cells (HLA-A2 negative)
T11 construct: whole, on cells; The result sentence says only 'CD3'; the epsilon chain comes from the description of the construct; also called human CD3 epsilon
T11 sequence (P07766 23-207): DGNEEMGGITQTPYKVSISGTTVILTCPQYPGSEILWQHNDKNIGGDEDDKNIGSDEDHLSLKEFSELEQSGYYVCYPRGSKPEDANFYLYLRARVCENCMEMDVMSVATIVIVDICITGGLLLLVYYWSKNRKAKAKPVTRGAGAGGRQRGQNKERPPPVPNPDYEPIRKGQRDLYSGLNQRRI
Experimental: Binding of the indicated bispecific mAb constructs to Foxp3+/HLA-A2+T lymphoma cell line MAC-2A and control cell line Jurkat. Since the bispecific mAb constructs were myc-tagged, the binding was tested by staining the cells with the bispecific mAbs, followed by a secondary mAb, mouse anti-myc conjugated to FITC. […] Binding strength is shown by median fluorescent intensity.

| binding result [1] | Median:PE-A [2] | Median:PE-A [3] | Median:PE-A [4] | Median:PE-A [5] | Median:PE-A [6] | Median:PE-A [7] | Median:PE-A [8] | Median:PE-A [9] | Median:PE-A [10] | binding result [11] | Binder |
| --- | --- | --- | --- | --- | --- | --- | --- | --- | --- | --- | --- |
| no binding | 861 | 3470 | 122 | 117 | 214 | 5620 | 603 | 5510 | 4450 | – | Foxp3-#32 bispecific mAb (bispecific antibody, Bispecific T cell engager format, made in CHO cells and purified through its His tag; also called FoxP3-#32 BsAb; Foxp3-bispecific mAb) QSVLTQPPSVSVAPGKTARITCGGNNIGSKSVHWYQQKPGQAPVLVIYYDSDRPSGIPERFSGSNSGNTATLTISRVEAGDEADYYCQVWDSSSDHYVFGTGTKVTVLGSRGGGGSGGGGSGGGGSLEMAEVQLVESGGGVVQPGRSLRLSCAASGFTFNNHAMHWVRQAPGKGLEWVAVISFDGDDKFYADSVKGRFTISRDNSRNTLFLQMNNLRPEDTAVYYCSRDPYHFASGSYSYFDYWGQGTLVTVSSTSGGGGSDVQLVQSGAEVKKPGASVKVSCKASGYTFTRYTMHWVRQAPGQGLEWIGYINPSRGYTNYADSVKGRFTITTDKSTSTAYMELSSLRSEDTATYYCARYYDDHYCLDYWGQGTTVTVSSGEGTSTGSGGSGGSGGADDIVLTQSPATLSLSPGERATLSCRASQSVSYMNWYQQKPGKAPKRWIYDTSKVASGVPARFSGSGSGTDYSLTINSLEAEDAATYYCQQWSSNPLTFGGGTKVEIKHHHHHH |
| – | – | – | – | – | – | – | – | – | – | no binding (tested: 1 ug/ml) | Foxp3-#32 mAb, mouse IgG1 form (antibody, V domains shown, APC-conjugated in some stainings; the letters do not carry the dye., Mouse IgG1 form of the TCR-mimic antibody, used for flow cytometry and APC-conjugated in some stainings; Where the text says only 'Foxp3-#32 mAb' in the Treg and cell line stainings, the methods and legends name the mouse IgG1 form; also called mAb Foxp3-#32; mAb-Foxp3-#32) VH: EVQLVESGGGVVQPGRSLRLSCAASGFTFNNHAMHWVRQAPGKGLEWVAVISFDGDDKFYADSVKGRFTISRDNSRNTLFLQMNNLRPEDTAVYYCSRDPYHFASGSYSYFDYWGQGTLVTVSS VL: QSVLTQPPSVSVAPGKTARITCGGNNIGSKSVHWYQQKPGQAPVLVIYYDSDRPSGIPERFSGSNSGNTATLTISRVEAGDEADYYCQVWDSSSDHYVFGTGTKVTVL |
